Laboratory results from the DeepSol protein solubility set.

Experiment: soluble on expression in E. coli; label from the status in PepcDB or PDB records
In the case of “MSLSVSFIFLLVASIGAVVADSENVLVLTESNFEETINGNEFVLVKFYAPWCVHCKSLAPKYDEAADLLKEEGSDIKLAKVDATENQALASKFEVRGYPTILYFKSGKPTKYTGGRATAQIVDWVKKKSGPTVTTVESVEQLEELKGKTRVVVLGYFKDAKSDAATIYNEVADSVDDAFFAVAGSAEVAAAASLNEDGVALIRTDGDDSETSTIAEAEITNTIALKQWLHAYKLSAVTEFTHESAQEIVGGDLKKFHFLIIRKSDSSFDETIAKFTEVAKKFRAKIVFVLLDVDVEENARILEFLGVDAKNTPANRIVSLADQVEKFKPQEGEDFEAFTNSYLEGKSAQDLKAQDLPEDWNALPVKVLVASNFNEIALDETKTVFVKFYAPWCGHCKQLVPVWDELAEKYESNPNVVIAKLDATLNELADVKVNSFPTLKLWPAGSSTPVDYDGDRNLEKFEEFVNKYAGSASESETASQDHEEL”, the “soluble on expression in E. coli” value is reported as “not soluble”.
For “MSLTAYLHIGTTNTGNQEKQGFLMQNEEKLLQKAYIYPKSLRVANRHWALVDMVLELVQKEDILKKESVLSHITNERLLRAIENFKSESALHKDKKFIFSAEGIVWDFSTKKHVEILEKIMRELGFTQIYIIVYFRDTLGYLNSHCSQDHKNNMGYYSADFAPQDHPRKYIFDYEWICKTHAEVFGEENLIVRLLREDYVGGTLLKDFVYHLGLEWDESFVLKQTKNESFNLLGMELMSRLNQKDLKQDNLNSLLFMARRKFEGSKEKRLKFAVQKDIAKAYVDYFASSLEWVKNKYFPHKNSLFTPVNWEEYEQNYTLTHMLSKDWDDVADFIAQIIVSKNEIISSLKEQLELAREGHHHHHH”, the “soluble on expression in E. coli” value was “soluble”.
In the case of “MSLTDDEISSTETAPDIATQPPLFVLGVGAARLDAGRLAELLDAVAGAANLAIMLLLRDRQLLDEAHLRALLGKQATLLSVPFDGEKLQPGRFYLPPADTVVTLEEGRIRLRALPNGESDHGLIDSFFVSMAHDQDGNVIGLIMGRFDGDGTLGTAAIKECGGLALAVDDASLHGLDLRSASNPAAITDHILPLPQLTARIAAHMQRHHGFGHPGPLGVRNGSESDKLSQIAAILRNTTGHDFHGYKRATFLRRVQQRMQVAQVEMLEQYLHILRYRFDEPLQLFNDLLIGVTKFFRDRRGFELLEQQVIPRLFKGKHTDDSMRVWVLGCSTGEEAYSLAMLLREHAETLDSAPRIQIFASDIDGRALATARVGRYASSIVGEVALERLRRWFVKEGDTYVVNKELRELCVFSQHSIVKDPPFSRLDLVSCRNLLIYLDAELQNRVIPIFHFAIRPGGYLFLGNAENVSLQAQLFTPVDRSVRVFQREGHHHHHH”, the “soluble on expression in E. coli” value is reported as “not soluble”.
In the case of “MSLTDEPKLLAEPREGVPNVIDTLPAFRDYCSELASSHGSLAADAERASGFRYGHEDWLVQFKRDGAGIGLLDPQALAAAGADWNDFNRAVGDAVWILHDSLQDLPGFDELGMEPQRLFDTEIAARLLGLKRFGLAAVTEHFLGLTLAKEHSAADWSYRPLPRDWRNYAALDVELLIELETKMRAELKRQGKMEWAQEEFDYALKEGLGPRKEHLIPWMHVSHITEVMRDRQALAIVRALWTRRDELAREYDIAPTLLLSDSSIIEVAKRKPHNAAQFRSIRSINERVRIHTDSEQDKMFERYAPIQRKIKPSMWKNIIQDALALPPSEWPDVDGGAARRHESQSASAPKSIRVWKERYPERLQVLNRVRKAVSQIAEDTRTPVEIVIKPQYLRNLCWTDEPRKRDVARFLSEQGARDWQVSLVAESVSRAIEGHHHHHH”, the “soluble on expression in E. coli” value is reported as “soluble”.
For “MSLTDLSRPTLPGALPDKRQVAASFSRAAASYDSVAALQRAVGLSLLEQLPAGLQPSHWLDLGSGTGHFSRMLAERFAQAGGVAVDIAEGMLLHARHVKGGAQYHVVGDAERLPLRDASVDLVFSSLAVQWCDQFASVLAEAQRVLRPGGVLAFSSLCVGTLDELRASWQAVDGLVHVNRFRRFEDYQRLCAASGFEQLELERCPHVLHYPDVRSLTHELKALGAHNLNPGRPSGLTGRARMQGLLQAYEAFRQPAGLPATYQVVYGVLRKPLAEGHHHHHH”, the “soluble on expression in E. coli” value was “not soluble”.
In the case of “MSLTDPLRFVLVPKVVHPWFDKVNDGAKAAAEMLTTTTGRKVTVEYRAPQKADVVEQNDIIARSIATRPDGIFVDLLDEKGNRAVLEEAQEQGIPVTVFDSVAPEGMNLTSIGNDFCEQATIASTRLVELMGGKGEVAIMMGVPTAPNHAIRAKCHEQTFAKYPDIKLVATGIDNDSIETAQKQAAAIMQAHPNLKGWVASDAAGPIGIGQAIKEAGKVGKVFEVGLDDLPDLLALIKEGVVDSSSSTKPEMQGYWAVIATWQKAMGMPTPKYIDTGIAVITKESLAKEGHHHHHH”, the “soluble on expression in E. coli” value is reported as “soluble”.
In the case of “MSLTEAGDSEGEQSYFVSTPDEYPGGHDREDDGSVYGQIHIEEESTIRYSWQDEIAQGTWRRKMRGDVGGEKPVKVLEVPALSLGGAIGSAHLKEEASGELRAEPTVIEKEIKIPHEFHTSIKGVFSSEPRHQLVEVIGQLEETLPERMKEELSALTRQSQGESGSVSVDVKKVQSAAGGSVTLMAEVNLSQTVDADQLDLEQLSRDEAGEIERAVESVVRESLAKRSSPVPRSEGHHHHHH”, the “soluble on expression in E. coli” value is reported as “soluble”.
With “MSLTELPRIISVDDHVIEPAHLFETWLPKKYRDRGPKPLTAGIGELAYVGGKYQITMDPKGPPTDWWIYEDLKFPYKRNIAAVGFDRDEMTLEGITRAEMRRGCWDPVERLKDMDANHVEGSLCFPTFPRFCGQTFAEAHDKEVALACVRAYNDWMVEEWCGDSGGRLIPLCLIPLWDIGLAVAEIRRNAARGVKAVTFSEIPTHLGLPSIHSGYWDPFFAVCQETGTVVNMHIGSSSQMPAASPDAPPAVQAALSFNNAMASMMDFLFSGVLVKFPRLKLAYSEGQMGWIPYALERADDVWEEHRAWGGVRDLIPEPPSTYYYRQIFCCFFRDKHGVASIDVVGRDNATFETDYPHVDSTFPHTKEVALDHVEGLDDETVYKLMRGNAIRMLDLDLDRDLDHLGNRDHLGARDTLSSRDKADREGHHHHHH” the “soluble on expression in E. coli” value was “soluble”.
With “MSLTERFVLRNVKRVNGEEVDIVIENNKIAQVTKAGAGEGGKVLDYSGTYVSSGWIDLHVHAFPEFDPYGDEVDEIGVKQGVTTIVDAGSCGADRIADLVKSREQAKTNLFAFLNISRIGLKRIDELSNMEWIDKEKVIEAVEKYKDVIVGLKARMSKSVVCDSGIEPLHIARDLSRETSLPIMVHIGSAPPRIEEVVPLLEKDDVITHYLNGKENNLFDEEGKPLPVLLDAVNRGVHLDVGHGNASFSFKVAEAAKRHGIAFNTISTDIYRKNRMHGPVYSMAHVLSKFLYLGYSLEEVIDAVTKHAAEWLKKPELGRIQEGDIANLTLFTVKDEKITLIDSEGDQRIAERRIDTKGVVINGSFIECEGHHHHHH” the “soluble on expression in E. coli” value was “soluble”.
With “MSLTERPRDCRPVVRRARTSDVPAIKQLVDTYAGKILLEKNLVTLYEAVQEFWVAEHPDLYGKVVGCGALHVLWSDLGEIRTVAVDPAMTGHGIGHAIVDRLLQVARDLQLQRVFVLTFETEFFARHGFTEIEGTPVTAEVFDEMCRSYDIGVAEFLDLSYVKPNILGNSRMLLVLEGHHHHHH” the “soluble on expression in E. coli” value was “soluble”.
In the case of “MSLTESESGGDTMMAAVLDVLPHGRPGDDRPQHQKEPLAYALDIDEFYIYELQLADKDADIAFGDRIDLTEFGRVTEVEFEDIPSGARSELDYAVEEVVEANEQRFVDFYNDAQPITLRLHQLNLLPGIGKKLRNTILDERKRKPFESFEDLEKRVSGLHSPKETLVERILEELQDDDLKYRLFVRREEQSSEGHHHHHH”, the “soluble on expression in E. coli” value is reported as “soluble”.
For “MSLTFCYPCRAFALLTRGFTSFMSGWPRIYYKLLNLPLSILVKSKSIPADPAPELGLDTSRPIMYVLPYNSKADLLTLRAQCLAHDLPDPLEPLEIDGTLLPRYVFIHGGPRVFTYYTPKEESIKLFHDYLDLHRSNPNLDVQMVPVSVMFGRAPGREKGEVNPPLRMLNGVQKFFAVLWLGRDSFVRFSPSVSLRRMADEHGTDKTIAQKLARVARMHFARQRLAAVGPRLPARQDLFNKLLASRAIAKAVEDEARSKKISHEKAQQNAIALMEEIAANFSYEMIRLTDRILGFTWNRLYQGINVHNAERVRQLAHDGHELVYVPCHRSHMDYLLLSYVLYHQGLVPPHIAAGINLNFWPAGPIFRRLGAFFIRRTFKGNKLYSTVFREYLGELFSRGYSVEYFVEGGRSRTGRLLDPKTGTLSMTIQAMLRGGTRPITLIPIYIGYEHVMEVGTYAKELRGATKEKESLPQMLRGLSKLRNLGQGYVNFGEPMPLMTYLNQHVPDWRESIDPIEAVRPAWLTPTVNNIAADLMVRINNAGAANAMNLCCTALLASRQRSLTREQLTEQLNCYLDLMRNVPYSTDSTVPSASASELIDHALQMNKFEVEKDTIGDIIILPREQAVLMTYYRNNIAHMLVLPSLMAAIVTQHRHISRDVLMEHVNVLYPMLKAELFLRWDRDELPDVIDALANEMQRQGLITLQDDELHINPVHSRTLQLLAAGARETLQRYAITFWLLSANPSINRGTLEKESRTVAQRLSVLHGINAPEFFDKAVFSSLVLTLRDEGYISDSGDAEPAETMKVYQLLAELITSDVRLTIESATQGEEGHHHHHH”, the “soluble on expression in E. coli” value was “soluble”.
In the case of “MSLTFEEKLSQMYNEIANEISGMIPVEWEKVYTIAYVDDEGGEVVFNYTKPGSEDLNYYSDIPKDCNVSKDIFKNSWFKVYRMFDELRETFKKEDLEPWTSCEFDFTRKGNLKVSFDYIDWIKLGFGPSGKENYYMYKKFGILPDMEYEMEEIRAVEKYVKEEGHHHHHH”, the “soluble on expression in E. coli” value is reported as “soluble”.
For “MSLTGKPIVLGLTISTTAAAGVADHADHMNGSLLAQEEINANGGILGRPLELRPVDVDLLSAESCQASIRKLVDLKVHAISSPFLFVPIPAMDASANYKCPYVNGNTQRAATDMVAKHPEKYNHIFQMDPSEVFYGETFPVFLESLADSGNWKPKNNKVHIVQEQIAYCQTISRACQEALKKSRFELAKVTDIQYPVQDWGSVIRDIKKTGAGTVMMDHWVAAEYAAFCKQFRANPLKGTLIYLQYGPSQPEFLELTGKAAEGFVWSTMLGVYADKKGQAFRDKYQKRFPGKTMGLCYTGGGYDIAYMMAQAWNAVGNPDDFKAVNDYIRKTAFRGVCGWSYMNNPRQEARHFPLGTDSIESGMSQLYFQIQDGKNKIIYPPQLKEGHHHHHH”, the “soluble on expression in E. coli” value was “soluble”.
With “MSLTGLCDSHLHTPLCGHATGTPREYAQAALDAGLSGLCFTDHMPMPRWYDAPWRMKLEQLPEYIAEIQAVQQEFAGRLDVRLGLEADFHPGTEKFVEKVLGMFDWDYVIGSVHYLGAWGFDNPEFVAEYEERDLGGLYRDYYALVEGAARSGLFDAIGHLDLPKKFGHLDPDPVYALHALDVVAGQGLALDFNTAGWRKPVAEAYPAPDLVRAAAERGIPFVLGSDAHQPGEVGFRFADAVKEIRDVGGRTVTFRHRKMQEGHHHHHH” the “soluble on expression in E. coli” value was “soluble”.
For “MSLTGRAFAIPLRTRFRGITVREGMLVRGAAGWGEFSPFAEYGPRECARWWAACYEAAELGWPAPVRDTVPVNATVPAVGPEEAARIVASSGCTTAKVKVAERGQSEANDVARVEAVRDALGPRGRVRIDVNGAWDVDTAVRMIRLLDRFELEYVEQPCATVDELAEVRRRVSVPIAADESIRRAEDPLRVRDAEAADVVVLKVQPLGGVRAALRLAEECGLPVVVSSAVETSVGLAAGVALAAALPELPYACGLATLRLLHADVCDDPLLPVHGVLPVRRVDVSEQRLAEVEIDPAAWQARLAAARAAWEQVEREPGPEGHHHHHH”, the “soluble on expression in E. coli” value was “soluble”.
